In paper PMC4551902, “Aquaporins Mediate Silicon Transport in Humans” (PLoS ONE, 2015):

How the values were obtained:
lsi1 = molecular target: T1, lsi1 (Oryza sativa, UniProt Q6Z2T3); assay: 68Ge influx into oocytes, liquid scintillation counting; assay type: cell-based; settings: 2 mM H4GeO4 with 68Ge tracer, B1 medium, pH 7.4, 90 min; labelled compound
T1 construct: gene NIP2-1; expressed in Xenopus laevis oocytes
T1 sequence (Q6Z2T3 1-298): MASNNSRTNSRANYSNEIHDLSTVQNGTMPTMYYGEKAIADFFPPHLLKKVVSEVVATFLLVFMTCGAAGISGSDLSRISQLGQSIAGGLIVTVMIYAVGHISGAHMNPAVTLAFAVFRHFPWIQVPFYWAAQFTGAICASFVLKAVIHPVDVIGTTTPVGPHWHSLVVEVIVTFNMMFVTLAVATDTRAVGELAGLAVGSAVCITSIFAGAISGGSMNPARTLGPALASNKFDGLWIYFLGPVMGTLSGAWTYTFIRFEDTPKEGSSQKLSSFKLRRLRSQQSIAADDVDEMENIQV

AQP9 = molecular target: T2, AQP9 (Homo sapiens, UniProt O43315); assay: Si influx and osmotic water transport in oocytes; assay type: cell-based; settings: 0.1 mM phloretin; Si influx: B2a hypoosmolar medium, 2 mM H4SiO4, 30 min; water transport: ~10 mM sucrose, 20 s
T2 construct: full-length human cDNA in Pol1 vector, untagged, expressed in Xenopus laevis oocytes
T2 sequence (O43315 1-295): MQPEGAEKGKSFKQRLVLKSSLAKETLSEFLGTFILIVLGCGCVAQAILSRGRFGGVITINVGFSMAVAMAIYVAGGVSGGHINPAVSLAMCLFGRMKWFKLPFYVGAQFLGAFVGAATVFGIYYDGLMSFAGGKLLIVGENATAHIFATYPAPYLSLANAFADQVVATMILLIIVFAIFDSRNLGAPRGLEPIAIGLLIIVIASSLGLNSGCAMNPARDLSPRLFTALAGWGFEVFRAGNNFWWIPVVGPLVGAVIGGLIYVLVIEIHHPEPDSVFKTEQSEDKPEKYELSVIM

[1] = substrate: O[Si](O)(O)O; assay: cells, lysate or membranes; settings: B1 medium, 4-parameter logistic fit

[OH][Ge]([OH])([OH])[OH] [H4GeO4]
68Ge influx into oocytes, liquid scintillation counting (lsi1): significantly different relative to background, between channels (for a given substrate)

O=C(CCc1ccc(O)cc1)c1c(O)cc(O)cc1O [phloretin]
effect on Si influx and water transport at 0.1 mM (AQP9): Si transport by AQP9 is seen to be stimulated by the water transport inhibitor phloretin

B1: AQP7 (Homo sapiens) (protein)
chain: MVQASGHRRSTRGSKMVSWSVIAKIQEILQRKMVREFLAEFMSTYVMMVFGLGSVAHMVLNKKYGSYLGVNLGFGFGVTMGVHVAGRISGAHMNAAVTFANCALGRVPWRKFPVYVLGQFLGSFLAAATIYSLFYTAILHFSGGQLMVTGPVATAGIFATYLPDHMTLWRGFLNEAWLTGMLQLCLFAITDQENNPALPGTEALVIGILVVIIGVSLGMNTGYAINPSRDLPPRIFTFIAGWGKQVFSNGENWWWVPVVAPLLGAYLGGIIYLVFIGSTIPREPLKLEDSVAYEDHGITVLPKMGSHEPTISPLTPVSVSPANRSSVHPAPPLHESMALEHF
K0.5 ([1]; pH 7.4, 0-2 mM H4SiO4 (value above tested range), 90 min): 2300 µM

B2: AQP10 (Homo sapiens) (protein)
chain: MVFTQAPAEIMGHLRIRSLLARQCLAEFLGVFVLMLLTQGAVAQAVTSGETKGNFFTMFLAGSLAVTIAIYVGGNVSGAHLNPAFSLAMCIVGRLPWVKLPIYILVQLLSAFCASGATYVLYHDALQNYTGGNLTVTGPKETASIFATYPAPYLSLNNGFLDQVLGTGMLIVGLLAILDRRNKGVPAGLEPVVVGMLILALGLSMGANCGIPLNPARDLGPRLFTYVAGWGPEVFSAGNGWWWVPVVAPLVGATVGTATYQLLVALHHPEGPEPAQDLVSAQHKASELETPASAQMLECKL
K0.5 ([1]; pH 7.4, 0-2 mM H4SiO4, 60 min): 470 µM

B3: AQP9 (Homo sapiens) (protein)
chain: MQPEGAEKGKSFKQRLVLKSSLAKETLSEFLGTFILIVLGCGCVAQAILSRGRFGGVITINVGFSMAVAMAIYVAGGVSGGHINPAVSLAMCLFGRMKWFKLPFYVGAQFLGAFVGAATVFGIYYDGLMSFAGGKLLIVGENATAHIFATYPAPYLSLANAFADQVVATMILLIIVFAIFDSRNLGAPRGLEPIAIGLLIIVIASSLGLNSGCAMNPARDLSPRLFTALAGWGFEVFRAGNNFWWIPVVGPLVGAVIGGLIYVLVIEIHHPEPDSVFKTEQSEDKPEKYELSVIM
K0.5 ([1]; pH 7.4, 0-2 mM H4SiO4, 30 min): 117 µM
